The results in this text go back to PMC4813160.

Usually stoichiometry N stands for a count of units in the complex or per binding partner.

In this assay the target is Isocitrate dehydrogenase (IDH) from B. longum (BlIDH) (Bifidobacterium longum subsp. infantis ATCC 15697). As to the kind of experiment: SEC; gel filtration on a 10/300 Superdex 200 column, 50 mM NaH2PO4 and 150 mM NaCl at pH 7.2; standards ovalbumin, conalbumin, aldolase, ferritin, thyroglobulin; single symmetrical peak, native mass 83 kDa against about 45 kDa for the subunit. (SEC sorts molecules by how far they enter the pores of the column.)

The substance “Isocitrate dehydrogenase (IDH) from B. longum (BlIDH) (enzyme)” came in with a stoichiometry N of 2.
